This test has as its target ABCA1 (mouse (endogenous in J774)) (UniProt P41233).
UniProt P41233, sequence (P41233 whole entry): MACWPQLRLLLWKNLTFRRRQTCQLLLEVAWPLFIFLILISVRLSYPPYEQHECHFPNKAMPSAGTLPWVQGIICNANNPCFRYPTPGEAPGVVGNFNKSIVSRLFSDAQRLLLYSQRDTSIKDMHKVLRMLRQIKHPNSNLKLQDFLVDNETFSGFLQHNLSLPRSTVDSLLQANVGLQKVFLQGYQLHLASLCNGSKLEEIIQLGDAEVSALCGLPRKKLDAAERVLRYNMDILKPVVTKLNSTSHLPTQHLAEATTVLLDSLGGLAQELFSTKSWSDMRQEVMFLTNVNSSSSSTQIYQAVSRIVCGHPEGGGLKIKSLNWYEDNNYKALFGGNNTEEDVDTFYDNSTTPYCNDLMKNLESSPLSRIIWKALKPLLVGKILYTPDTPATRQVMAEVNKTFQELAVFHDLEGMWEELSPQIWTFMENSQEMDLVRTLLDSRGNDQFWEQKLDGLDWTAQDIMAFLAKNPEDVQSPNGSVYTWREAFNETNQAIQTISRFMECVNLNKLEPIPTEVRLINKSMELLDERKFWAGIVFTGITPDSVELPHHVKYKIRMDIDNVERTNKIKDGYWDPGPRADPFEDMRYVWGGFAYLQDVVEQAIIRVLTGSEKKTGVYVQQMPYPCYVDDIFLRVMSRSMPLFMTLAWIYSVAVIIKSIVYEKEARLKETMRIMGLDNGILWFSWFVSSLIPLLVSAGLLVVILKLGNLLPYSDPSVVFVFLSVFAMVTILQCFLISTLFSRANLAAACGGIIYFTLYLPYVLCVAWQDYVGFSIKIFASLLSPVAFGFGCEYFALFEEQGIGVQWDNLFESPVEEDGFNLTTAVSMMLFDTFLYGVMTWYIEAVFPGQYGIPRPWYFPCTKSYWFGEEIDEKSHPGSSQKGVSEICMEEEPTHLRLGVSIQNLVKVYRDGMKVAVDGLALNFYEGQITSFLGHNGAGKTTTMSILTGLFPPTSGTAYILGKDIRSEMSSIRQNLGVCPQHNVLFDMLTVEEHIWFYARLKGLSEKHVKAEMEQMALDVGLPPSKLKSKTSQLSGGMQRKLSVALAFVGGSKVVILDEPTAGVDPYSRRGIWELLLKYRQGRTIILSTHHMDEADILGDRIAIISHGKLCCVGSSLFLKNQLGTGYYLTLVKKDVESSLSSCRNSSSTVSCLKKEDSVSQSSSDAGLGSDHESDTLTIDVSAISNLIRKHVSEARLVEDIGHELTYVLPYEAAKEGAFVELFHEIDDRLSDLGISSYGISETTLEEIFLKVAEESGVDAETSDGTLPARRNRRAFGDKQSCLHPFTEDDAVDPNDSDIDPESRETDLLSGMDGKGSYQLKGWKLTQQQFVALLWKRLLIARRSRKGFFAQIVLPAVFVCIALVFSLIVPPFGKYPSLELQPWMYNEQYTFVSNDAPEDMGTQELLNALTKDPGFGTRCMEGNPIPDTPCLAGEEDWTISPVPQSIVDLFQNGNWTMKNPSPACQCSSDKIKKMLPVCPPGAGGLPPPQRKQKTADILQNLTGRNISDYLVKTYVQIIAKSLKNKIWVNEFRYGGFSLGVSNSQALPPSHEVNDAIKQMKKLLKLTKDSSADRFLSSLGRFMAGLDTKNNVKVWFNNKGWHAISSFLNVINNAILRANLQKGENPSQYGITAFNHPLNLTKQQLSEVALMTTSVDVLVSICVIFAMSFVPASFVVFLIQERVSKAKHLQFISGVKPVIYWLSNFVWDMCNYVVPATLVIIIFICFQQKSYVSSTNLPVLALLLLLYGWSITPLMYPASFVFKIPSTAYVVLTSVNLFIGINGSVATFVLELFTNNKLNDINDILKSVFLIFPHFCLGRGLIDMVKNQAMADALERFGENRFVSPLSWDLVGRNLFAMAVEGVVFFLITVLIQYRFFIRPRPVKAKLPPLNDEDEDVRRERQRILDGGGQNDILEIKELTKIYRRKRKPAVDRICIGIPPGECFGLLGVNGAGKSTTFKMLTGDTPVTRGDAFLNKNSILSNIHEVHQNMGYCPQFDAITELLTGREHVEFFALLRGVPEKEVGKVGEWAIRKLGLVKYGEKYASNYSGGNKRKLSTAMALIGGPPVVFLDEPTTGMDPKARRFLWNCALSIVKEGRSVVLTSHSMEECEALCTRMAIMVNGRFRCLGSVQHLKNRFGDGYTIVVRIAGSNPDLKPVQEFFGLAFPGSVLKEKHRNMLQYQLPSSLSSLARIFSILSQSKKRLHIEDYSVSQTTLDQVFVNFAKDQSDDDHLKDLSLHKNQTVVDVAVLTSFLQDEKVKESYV

In the case of “WT apoA-I (from UniProt P02647 19-267) (natural protein)”, the percent BODIPY-cholesterol efflux from J774 cells treated with cAMP (ABCA1 upregulated), apoA-I 10 ug/ml, 6 and 24 h; value after 24 h came to 28.7%.

On to apoA-I[K107del] (natural protein), for which the percent BODIPY-cholesterol efflux from J774 cells treated with cAMP (ABCA1 upregulated), apoA-I 10 ug/ml, 6 and 24 h; value after 24 h was 27.9%.

These data come from PMC9926306.
